Measurements taken from paper PMC3001067 (Nucleic Acids Research, 2010).

How the values were obtained:
[1] = molecular target: Thermus aquaticus RNAP β-subunit β1 domain (Taq β 17–139 –Gly–Gly– 334–395) (Thermus aquaticus) (UniProt Q9KWU7); assay: crystal structure
[2] = molecular target: Tth RNAP-β1 Q99R (Tth RNAP β-subunit residues 10–133), two-hybrid fusion (Thermus thermophilus) (UniProt Q8RQE9); assay: two-hybrid
[3] = molecular target: Tth RNAP β-subunit residues 10–133 (Tth RNAP-β1), two-hybrid fusion (Thermus thermophilus) (UniProt Q8RQE9); assay: two-hybrid
[4] = molecular target: Eco RNAP β-subunit residues 19–142 (Eco RNAP-β1), two-hybrid fusion (Escherichia coli) (UniProt P0A8V2); assay: two-hybrid
[5] = molecular target: T1, Tth RNAP-β1 Q99R (Tth RNAP β-subunit residues 10–133), two-hybrid fusion (Thermus thermophilus, UniProt Q8RQE9 10-133, Q99R); assay: two-hybrid
T1 sequence (looked up): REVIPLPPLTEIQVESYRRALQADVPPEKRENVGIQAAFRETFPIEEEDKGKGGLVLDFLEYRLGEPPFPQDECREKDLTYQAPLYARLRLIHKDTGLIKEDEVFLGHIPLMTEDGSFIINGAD

[6] = molecular target: Eco RNAP β-subunit residues 19–142 (Eco RNAP-β1), two-hybrid fusion (Escherichia coli, UniProt P0A8V2 19-142); assay: two-hybrid

Q: How did the stoichiometry N [1] turn out when “Thermus thermophilus HB27 TRCF RNAP interacting domain (Tth TRCF–RID, residues 321–387) (domain or fragment)” was run?
A: 1

Q: “Tth TRCF residues 314–444 (Tth TRCF–RID), two-hybrid fusion (domain or fragment)” was tested. Which fold defect of the two-hybrid signal against wild-type Tth RNAP-β1 [2] did it give?
A: 2 fold

Q: Which fold defect of the two-hybrid signal against wild-type Tth TRCF–RID [3] does the source give for “Tth TRCF–RID R341L (Tth TRCF residues 314–444), two-hybrid fusion (domain or fragment)” here?
A: 2 fold

Q: What about the fold change of the two-hybrid signal against wild-type Tth TRCF–RID [4] of the same molecule?
A: 2 fold

B1: Eco TRCF residues 472–603 (Eco TRCF–RID), two-hybrid fusion (domain or fragment, Escherichia coli, UniProt P30958 472-603, looked up)
chain: RNLAELHIGQPVVHLEHGVGRYAGMTTLEAGGITGEYLMLTYANDAKLYVPVSSLHLISRYAGGAEENAPLHKLGGDAWSRARQKAAEKVRDVAAELLDIYAQRAAKEGFAFKHDREQYQLFCDSFPFETTP
Q: How did the “fold change of the two-hybrid signal against wild-type Tth RNAP-β1” value [5] turn out when B1 was run?
A: ~2 fold

B2: Eco TRCF–RID L499R (Eco TRCF residues 472–603), two-hybrid fusion (domain or fragment, Escherichia coli, UniProt P30958 472-603, looked up)
chain: RNLAELHIGQPVVHLEHGVGRYAGMTTREAGGITGEYLMLTYANDAKLYVPVSSLHLISRYAGGAEENAPLHKLGGDAWSRARQKAAEKVRDVAAELLDIYAQRAAKEGFAFKHDREQYQLFCDSFPFETTP
Q: How did the “fold defect of the two-hybrid signal against wild-type Eco TRCF–RID” value [6] turn out when B2 was run?
A: ~10 fold
